From patent US20250171512A1

target: human FGFR1c together with human beta-Klotho (KLB), stably expressed on CHO Flp-In cells (human) (UniProt P11362); experiment: cell-based or functional assay
Sequence (P11362 22-822, chain 1 of 2): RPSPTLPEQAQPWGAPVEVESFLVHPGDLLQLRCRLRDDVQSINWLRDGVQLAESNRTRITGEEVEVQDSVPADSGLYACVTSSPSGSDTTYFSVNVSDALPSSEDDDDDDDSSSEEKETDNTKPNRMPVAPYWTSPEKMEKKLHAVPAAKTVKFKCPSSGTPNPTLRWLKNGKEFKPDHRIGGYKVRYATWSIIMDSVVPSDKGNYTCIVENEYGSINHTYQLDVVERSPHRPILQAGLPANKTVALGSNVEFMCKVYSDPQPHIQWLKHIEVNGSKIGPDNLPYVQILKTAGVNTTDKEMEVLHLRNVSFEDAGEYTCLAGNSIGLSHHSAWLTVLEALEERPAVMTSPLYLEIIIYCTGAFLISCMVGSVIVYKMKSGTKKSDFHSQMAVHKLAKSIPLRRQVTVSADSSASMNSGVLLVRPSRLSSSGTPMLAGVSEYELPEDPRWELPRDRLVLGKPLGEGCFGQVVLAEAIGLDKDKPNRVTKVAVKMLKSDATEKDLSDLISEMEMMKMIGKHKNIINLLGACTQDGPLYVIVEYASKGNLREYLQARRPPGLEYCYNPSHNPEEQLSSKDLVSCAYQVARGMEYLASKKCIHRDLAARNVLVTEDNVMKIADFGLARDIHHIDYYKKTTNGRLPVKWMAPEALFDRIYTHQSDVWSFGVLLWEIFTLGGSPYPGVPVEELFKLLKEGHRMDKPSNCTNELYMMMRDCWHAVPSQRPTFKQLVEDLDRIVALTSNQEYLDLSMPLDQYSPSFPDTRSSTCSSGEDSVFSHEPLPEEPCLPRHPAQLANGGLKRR
Sequence (Q86Z14 whole entry, chain 2 of 2, further chain): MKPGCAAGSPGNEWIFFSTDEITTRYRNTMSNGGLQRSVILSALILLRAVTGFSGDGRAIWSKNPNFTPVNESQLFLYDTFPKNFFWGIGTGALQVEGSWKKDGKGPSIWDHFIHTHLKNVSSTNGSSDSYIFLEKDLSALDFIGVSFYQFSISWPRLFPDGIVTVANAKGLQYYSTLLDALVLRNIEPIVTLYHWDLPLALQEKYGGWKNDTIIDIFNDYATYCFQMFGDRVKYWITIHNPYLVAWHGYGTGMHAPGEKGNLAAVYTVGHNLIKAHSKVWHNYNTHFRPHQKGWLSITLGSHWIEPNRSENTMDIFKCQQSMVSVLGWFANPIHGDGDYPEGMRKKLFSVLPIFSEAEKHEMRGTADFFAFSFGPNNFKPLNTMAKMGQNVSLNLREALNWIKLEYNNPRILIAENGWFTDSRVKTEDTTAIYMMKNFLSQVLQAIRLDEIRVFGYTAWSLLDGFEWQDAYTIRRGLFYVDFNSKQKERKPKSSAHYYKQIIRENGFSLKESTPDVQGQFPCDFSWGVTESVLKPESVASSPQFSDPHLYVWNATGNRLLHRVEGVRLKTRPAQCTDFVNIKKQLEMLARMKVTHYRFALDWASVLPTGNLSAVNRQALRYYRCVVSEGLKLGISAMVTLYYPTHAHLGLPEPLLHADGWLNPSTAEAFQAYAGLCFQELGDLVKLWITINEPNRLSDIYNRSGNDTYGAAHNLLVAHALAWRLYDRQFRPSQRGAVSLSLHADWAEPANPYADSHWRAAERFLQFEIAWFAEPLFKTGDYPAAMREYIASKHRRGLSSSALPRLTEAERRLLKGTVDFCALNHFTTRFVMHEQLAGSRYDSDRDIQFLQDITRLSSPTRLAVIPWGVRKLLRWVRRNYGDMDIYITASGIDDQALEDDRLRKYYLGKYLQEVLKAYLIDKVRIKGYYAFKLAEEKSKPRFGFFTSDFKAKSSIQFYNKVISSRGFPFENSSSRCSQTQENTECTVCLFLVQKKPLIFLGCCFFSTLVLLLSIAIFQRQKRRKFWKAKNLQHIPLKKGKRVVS

Chain of FGF21 GGGGS inserted between G198 and P199 (SEQ ID NO: 15) (Q9NSA1 other isoform, or with tags, fused parts or gaps): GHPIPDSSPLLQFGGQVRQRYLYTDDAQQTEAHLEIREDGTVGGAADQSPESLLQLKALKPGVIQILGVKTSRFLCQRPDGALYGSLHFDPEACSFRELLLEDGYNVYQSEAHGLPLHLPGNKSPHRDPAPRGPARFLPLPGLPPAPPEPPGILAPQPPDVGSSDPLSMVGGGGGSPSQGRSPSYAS
Chain of FGF21 Q184 deleted (SEQ ID NO: 60) (Q9NSA1 other isoform, or with tags, fused parts or gaps): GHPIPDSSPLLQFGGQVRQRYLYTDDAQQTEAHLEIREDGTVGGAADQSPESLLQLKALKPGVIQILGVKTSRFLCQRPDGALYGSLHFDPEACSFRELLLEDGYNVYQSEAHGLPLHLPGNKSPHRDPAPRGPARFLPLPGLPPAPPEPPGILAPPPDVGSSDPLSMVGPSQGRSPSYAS
Chain of FGF21 G198 deleted, S200 deleted (SEQ ID NO: 74) (Q9NSA1 other isoform, or with tags, fused parts or gaps): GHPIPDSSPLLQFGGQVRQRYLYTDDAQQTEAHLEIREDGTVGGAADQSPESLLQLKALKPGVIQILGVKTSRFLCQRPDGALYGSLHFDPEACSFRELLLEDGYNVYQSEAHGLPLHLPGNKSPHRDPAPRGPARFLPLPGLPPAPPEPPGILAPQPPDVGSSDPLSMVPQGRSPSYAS
Chain of FGF21 P205 deleted (SEQ ID NO: 66) (Q9NSA1 other isoform, or with tags, fused parts or gaps): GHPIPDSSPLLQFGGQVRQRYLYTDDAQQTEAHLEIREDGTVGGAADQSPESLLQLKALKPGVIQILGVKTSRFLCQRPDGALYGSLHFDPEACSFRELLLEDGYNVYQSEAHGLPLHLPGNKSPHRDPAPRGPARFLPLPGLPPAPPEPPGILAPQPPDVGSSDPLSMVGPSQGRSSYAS
Chain of FGF21 G189 deleted (SEQ ID NO: 55) (Q9NSA1 other isoform, or with tags, fused parts or gaps): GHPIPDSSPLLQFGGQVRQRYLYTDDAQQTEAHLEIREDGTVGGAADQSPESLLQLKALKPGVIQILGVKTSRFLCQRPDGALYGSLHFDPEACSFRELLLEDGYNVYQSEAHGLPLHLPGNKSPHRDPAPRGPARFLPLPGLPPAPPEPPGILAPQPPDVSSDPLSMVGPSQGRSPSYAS
Chain of FGF21 Q201 deleted (SEQ ID NO: 62) (Q9NSA1 other isoform, or with tags, fused parts or gaps): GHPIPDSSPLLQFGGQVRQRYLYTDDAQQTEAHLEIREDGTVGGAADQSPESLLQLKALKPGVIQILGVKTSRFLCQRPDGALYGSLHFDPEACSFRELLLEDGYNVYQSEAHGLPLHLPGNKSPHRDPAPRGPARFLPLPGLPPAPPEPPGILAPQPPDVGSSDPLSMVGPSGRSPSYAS
Chain of FGF21 P186 deleted (SEQ ID NO: 58) (Q9NSA1 other isoform, or with tags, fused parts or gaps): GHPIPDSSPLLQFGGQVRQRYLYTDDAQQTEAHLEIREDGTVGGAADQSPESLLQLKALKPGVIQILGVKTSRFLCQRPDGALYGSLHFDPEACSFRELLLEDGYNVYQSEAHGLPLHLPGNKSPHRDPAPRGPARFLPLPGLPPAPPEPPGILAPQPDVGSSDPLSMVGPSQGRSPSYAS
Chain of FGF21 P199 deleted (SEQ ID NO: 11) (Q9NSA1 other isoform, or with tags, fused parts or gaps): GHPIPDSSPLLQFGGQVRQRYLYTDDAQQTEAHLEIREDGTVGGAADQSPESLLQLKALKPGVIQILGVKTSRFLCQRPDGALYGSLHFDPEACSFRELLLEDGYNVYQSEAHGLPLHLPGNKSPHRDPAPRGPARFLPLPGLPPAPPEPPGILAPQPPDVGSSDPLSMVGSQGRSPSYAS
Chain of FGF21 P185-P186 deleted (SEQ ID NO: 59) (Q9NSA1 other isoform, or with tags, fused parts or gaps): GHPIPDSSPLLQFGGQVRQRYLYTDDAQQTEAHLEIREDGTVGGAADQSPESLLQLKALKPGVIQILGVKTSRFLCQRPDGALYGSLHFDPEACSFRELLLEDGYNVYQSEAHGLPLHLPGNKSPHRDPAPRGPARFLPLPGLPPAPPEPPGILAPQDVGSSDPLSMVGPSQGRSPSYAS
Chain of FGF21 G202 deleted (SEQ ID NO: 63) (Q9NSA1 other isoform, or with tags, fused parts or gaps): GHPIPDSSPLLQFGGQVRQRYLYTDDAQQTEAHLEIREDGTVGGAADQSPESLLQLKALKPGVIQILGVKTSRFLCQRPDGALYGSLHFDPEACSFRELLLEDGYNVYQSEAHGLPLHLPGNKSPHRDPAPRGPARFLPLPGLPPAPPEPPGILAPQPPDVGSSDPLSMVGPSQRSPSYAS
Chain of FGF21 D187 deleted (SEQ ID NO: 57) (Q9NSA1 other isoform, or with tags, fused parts or gaps): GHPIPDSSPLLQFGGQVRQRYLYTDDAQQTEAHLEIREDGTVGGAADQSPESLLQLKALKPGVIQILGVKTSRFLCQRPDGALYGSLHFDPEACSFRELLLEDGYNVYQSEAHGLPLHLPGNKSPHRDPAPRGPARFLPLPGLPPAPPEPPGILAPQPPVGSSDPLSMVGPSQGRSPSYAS
Chain of FGF21 M196 deleted, S201 deleted (SEQ ID NO: 70) (Q9NSA1 other isoform, or with tags, fused parts or gaps): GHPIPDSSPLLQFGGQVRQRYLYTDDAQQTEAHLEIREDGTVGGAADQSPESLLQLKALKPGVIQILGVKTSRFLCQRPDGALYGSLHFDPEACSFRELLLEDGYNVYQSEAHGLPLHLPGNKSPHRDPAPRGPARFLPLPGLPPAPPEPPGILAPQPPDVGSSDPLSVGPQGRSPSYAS
Chain of FGF21 G198-P199 deleted (SEQ ID NO: 30) (Q9NSA1 other isoform, or with tags, fused parts or gaps): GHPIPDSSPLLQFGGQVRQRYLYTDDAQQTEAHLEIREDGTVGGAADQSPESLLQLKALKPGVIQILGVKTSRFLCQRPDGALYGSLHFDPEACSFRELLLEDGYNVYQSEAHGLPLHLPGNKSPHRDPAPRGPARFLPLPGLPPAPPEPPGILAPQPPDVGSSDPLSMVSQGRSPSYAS
Chain of FGF21 G198 deleted (SEQ ID NO: 29) (Q9NSA1 other isoform, or with tags, fused parts or gaps): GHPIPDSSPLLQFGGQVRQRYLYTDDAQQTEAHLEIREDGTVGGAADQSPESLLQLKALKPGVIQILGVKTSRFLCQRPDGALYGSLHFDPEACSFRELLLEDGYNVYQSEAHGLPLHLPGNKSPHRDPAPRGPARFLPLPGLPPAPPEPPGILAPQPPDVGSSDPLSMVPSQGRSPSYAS

Substance | pERK ICW EC50 [nmol/L]
FGF21 A54C, P161C (SEQ ID NO: 109) (from UniProt Q9NSA1 29-209) (ligand) | 6.38
FGF21 A59C, A73C (SEQ ID NO: 105) (from UniProt Q9NSA1 29-209) (ligand) | 19.2
FGF21 D130C, Y132C (SEQ ID NO: 83) (from UniProt Q9NSA1 29-209) (ligand) | 49.4
FGF21 D187 deleted (SEQ ID NO: 57) (from UniProt Q9NSA1 29-209) (ligand) | 86.1
FGF21 E62C, A72C (SEQ ID NO: 106) (from UniProt Q9NSA1 29-209) (ligand) | 2.03
FGF21 E62C, E78C (SEQ ID NO: 101) (from UniProt Q9NSA1 29-209) (ligand) | 2.44
FGF21 E62C, S79C (SEQ ID NO: 102) (from UniProt Q9NSA1 29-209) (ligand) | 0.55
FGF21 G108C, L142C, P199 deleted (SEQ ID NO: 40) (from UniProt Q9NSA1 29-209) (ligand) | 0.9
FGF21 G189 deleted (SEQ ID NO: 55) (from UniProt Q9NSA1 29-209) (ligand) | 76.2
FGF21 G198 deleted, P199F (SEQ ID NO: 31) (from UniProt Q9NSA1 29-209) (ligand) | 2.1
FGF21 G198 deleted, P199L (SEQ ID NO: 32) (from UniProt Q9NSA1 29-209) (ligand) | 4.8
FGF21 G198 deleted, S200 deleted (SEQ ID NO: 74) (from UniProt Q9NSA1 29-209) (ligand) | 77.8
FGF21 G198-P199 deleted (SEQ ID NO: 30) (from UniProt Q9NSA1 29-209) (ligand) | 14.5
FGF21 G198E (SEQ ID NO: 16) (from UniProt Q9NSA1 29-209) (ligand) | 4.53
FGF21 G198R (SEQ ID NO: 18) (from UniProt Q9NSA1 29-209) (ligand) | 1.15
FGF21 G202 deleted (SEQ ID NO: 63) (from UniProt Q9NSA1 29-209) (ligand) | 8.18
FGF21 H140C, L142C (SEQ ID NO: 82) (from UniProt Q9NSA1 29-209) (ligand) | 2.27

Substance | pERK ICW EC50 [nmol/L]
FGF21 L80C, V96C (SEQ ID NO: 119) (from UniProt Q9NSA1 29-209) (ligand) | 17.9
FGF21 L146C, A162C (SEQ ID NO: 35) (from UniProt Q9NSA1 29-209) (ligand) | 8.28
FGF21 M196 deleted, S201 deleted (SEQ ID NO: 70) (from UniProt Q9NSA1 29-209) (ligand) | 165
FGF21 P185-P186 deleted (SEQ ID NO: 59) (from UniProt Q9NSA1 29-209) (ligand) | 21.1
FGF21 P186 deleted (SEQ ID NO: 58) (from UniProt Q9NSA1 29-209) (ligand) | 0.87
FGF21 P199 deleted (SEQ ID NO: 11) (from UniProt Q9NSA1 29-209) (ligand) | 2.31
FGF21 P199G (SEQ ID NO: 21) (from UniProt Q9NSA1 29-209) (ligand) | 1.65
FGF21 P199R (SEQ ID NO: 22) (from UniProt Q9NSA1 29-209) (ligand) | 0.95
FGF21 P199T (SEQ ID NO: 23) (from UniProt Q9NSA1 29-209) (ligand) | 1.66
FGF21 Q55C, G148C (SEQ ID NO: 93) (from UniProt Q9NSA1 29-209) (ligand) | 0.48
FGF21 Q55C, N149C, P199 deleted (SEQ ID NO: 46) (from UniProt Q9NSA1 29-209) (ligand) | 1.7
FGF21 Q55G, Q56C, L146C (SEQ ID NO: 96) (from UniProt Q9NSA1 29-209) (ligand) | 163
FGF21 Q55G, Q56C, L146C, P147-R159 deleted and replaced by GSGS (SEQ ID NO: 97) (from UniProt Q9NSA1 29-209) (ligand) | 114
FGF21 Q82C, L94C (SEQ ID NO: 122) (from UniProt Q9NSA1 29-209) (ligand) | 5.57
FGF21 Q104C, S137C (SEQ ID NO: 107) (from UniProt Q9NSA1 29-209) (ligand) | 1.83
FGF21 Q201 deleted (SEQ ID NO: 62) (from UniProt Q9NSA1 29-209) (ligand) | 1.91
FGF21 R47C, P174C (SEQ ID NO: 90) (from UniProt Q9NSA1 29-209) (ligand) | 14.5

Now from value to substance:

pERK ICW EC50 [nmol/L] | Substance
2.15 | FGF21 A59C, G71C (SEQ ID NO: 77) (from UniProt Q9NSA1 29-209) (ligand)
0.75 | FGF21 A59C, G71C, G198Y (SEQ ID NO: 37) (from UniProt Q9NSA1 29-209) (ligand)
1.16 | FGF21 A59C, G71C, P199 deleted (SEQ ID NO: 36) (from UniProt Q9NSA1 29-209) (ligand)
11.8 | FGF21 A72C, S79C (SEQ ID NO: 87) (from UniProt Q9NSA1 29-209) (ligand)
8.24 | FGF21 A72C, S79C, G108C, L142C (SEQ ID NO: 89) (from UniProt Q9NSA1 29-209) (ligand)
22 | FGF21 A120C, A139C (SEQ ID NO: 114) (from UniProt Q9NSA1 29-209) (ligand)
9.22 | FGF21 E78C, T98C (SEQ ID NO: 118) (from UniProt Q9NSA1 29-209) (ligand)
23.3 | FGF21 G67C, R100C (SEQ ID NO: 112) (from UniProt Q9NSA1 29-209) (ligand)
1.48 | FGF21 G108C, L142C (SEQ ID NO: 86) (from UniProt Q9NSA1 29-209) (ligand)
0.55 | FGF21 G108C, L142C, G198Y (SEQ ID NO: 41) (from UniProt Q9NSA1 29-209) (ligand)
41.6 | FGF21 G198 deleted (SEQ ID NO: 29) (from UniProt Q9NSA1 29-209) (ligand)
9.44 | FGF21 G198 deleted, P199L, S200N (SEQ ID NO: 33) (from UniProt Q9NSA1 29-209) (ligand)
4.94 | FGF21 G198D (SEQ ID NO: 17) (from UniProt Q9NSA1 29-209) (ligand)
1.81 | FGF21 G198K (SEQ ID NO: 19) (from UniProt Q9NSA1 29-209) (ligand)
10.8 | FGF21 G198P, P199G (SEQ ID NO: 24) (from UniProt Q9NSA1 29-209) (ligand)
0.68 | FGF21 G198Y (SEQ ID NO: 20) (from UniProt Q9NSA1 29-209) (ligand)
3.07 | FGF21 GGGGS inserted between G198 and P199 (SEQ ID NO: 15) (from UniProt Q9NSA1 29-209) (ligand)
67.1 | FGF21 H60C, S79C (SEQ ID NO: 75) (from UniProt Q9NSA1 29-209) (ligand)
6.51 | FGF21 H145C, P161C (SEQ ID NO: 120) (from UniProt Q9NSA1 29-209) (ligand)

pERK ICW EC50 [nmol/L] | Substance
5.05 | FGF21 I63C, G112C (SEQ ID NO: 79) (from UniProt Q9NSA1 29-209) (ligand)
87.6 | FGF21 I63C, T98C (SEQ ID NO: 111) (from UniProt Q9NSA1 29-209) (ligand)
46.5 | FGF21 L81C, G95C (SEQ ID NO: 121) (from UniProt Q9NSA1 29-209) (ligand)
26.7 | FGF21 M196V, V197M (SEQ ID NO: 13) (from UniProt Q9NSA1 29-209) (ligand)
8.76 | FGF21 P77C, K97C (SEQ ID NO: 117) (from UniProt Q9NSA1 29-209) (ligand)
17.6 | FGF21 P143C, A162C (SEQ ID NO: 116) (from UniProt Q9NSA1 29-209) (ligand)
1.76 | FGF21 P199Q, Q201P (SEQ ID NO: 10) (from UniProt Q9NSA1 29-209) (ligand)
1.72 | FGF21 P199S, S200P (SEQ ID NO: 9) (from UniProt Q9NSA1 29-209) (ligand)
27.4 | FGF21 P205 deleted (SEQ ID NO: 66) (from UniProt Q9NSA1 29-209) (ligand)
7.27 | FGF21 Q55C, G148C, N149-R159 deleted and replaced by GGSGGS (SEQ ID NO: 95) (from UniProt Q9NSA1 29-209) (ligand)
8.19 | FGF21 Q55C, G148C, N149-R159 deleted and replaced by GSGS (SEQ ID NO: 94) (from UniProt Q9NSA1 29-209) (ligand)
0.58 | FGF21 Q55C, N149C, G198Y (SEQ ID NO: 47) (from UniProt Q9NSA1 29-209) (ligand)
3.6 | FGF21 Q55C, P147C, G198Y (SEQ ID NO: 45) (from UniProt Q9NSA1 29-209) (ligand)
10 | FGF21 Q55C, P147C, P199 deleted (SEQ ID NO: 44) (from UniProt Q9NSA1 29-209) (ligand)
155 | FGF21 Q55G, Q56C, L146C, P147-R159 deleted and replaced by GGSGGS (SEQ ID NO: 98) (from UniProt Q9NSA1 29-209) (ligand)
21.9 | FGF21 Q104C, H140C (SEQ ID NO: 108) (from UniProt Q9NSA1 29-209) (ligand)
2.26 | FGF21 Q184 deleted (SEQ ID NO: 60) (from UniProt Q9NSA1 29-209) (ligand)
48.2 | FGF21 R100C, L114C (SEQ ID NO: 103) (from UniProt Q9NSA1 29-209) (ligand)
22.6 | FGF21 R124C, Q136C (SEQ ID NO: 115) (from UniProt Q9NSA1 29-209) (ligand)
